Results taken from patent publication US12102667B2, “Polypeptides and antibiotics against gram-negative bacterium comprising the same” (priority 2021, dated 2024).

Legend:
[1] = system: P. aeruginosa; assay: MIC, broth microdilution; format: cell-based, Pseudomonas aeruginosa
Experimental: (§1) The MIC of the LNT113 or antibiotic was determined using modification of the broth microdilution method in a 96-well, round bottom, microplate according to the previously described method (Heselpoth et al., 2019). Exponentially grown cells were diluted to a concentration of 10^6 CFU/ml in a CAA medium, and then cultured with recombinant LNT113 (1-64 μg/ml) or antibiotics at 35° C. for 20 hours. […] The MBC was defined as the lowest concentration of the antibacterial agent with no growth on a plate. All analyses were performed in duplicate.

[2] = system: E. coli; assay: MIC and MBC, broth microdilution in CAA medium; format: cell-based, Escherichia coli
Experimental: as §1

[3] = system: A. baumannii; assay: MIC, broth microdilution; format: cell-based, Acinetobacter baumannii
Experimental: as §1

[4] = system: E. cloacae; assay: MIC, broth microdilution; format: cell-based, Enterobacter cloacae
Experimental: as §1

[5] = system: various gram-negative bacterium; assay: MIC, summary over Table 4 strains; format: cell-based; conditions: strains of Table 4
Experimental: as §1

B1: LNT113: fusion polypeptide: Cecropin A, (GGGGS)3 linker, mutant endolysin mtEC340; recombinant form with C-terminal His tag (protein)
chain: MKWKLFKKIEKVGQNIRDGIIKAGPAVAVVGQATQIAKGGGGSGGGGSGGGGSVSRNISNNGIKFTAAFEGFRGTAYRATPNEKYLTIGYGSYGPHVEPGKTITPGQGLLLLNRDMAKAVAAVDAVAHHSLTQSQFDAVCDLVYNAGAGVIAAATGTGKALRSGDVATLRAKLALFINQNGKPLLGLRRRTAGRLALFDGKPWQEAEAIGRAVKG
modifications: synthetic_Met+Cecropin A+GGGGS3 linker+mtEC340
notes: fusion polypeptide: Cecropin A, (GGGGS)3 linker, mutant endolysin mtEC340; recombinant form with C-terminal His tag
MIC ([1]; P. aeruginosa ATCC 15522): 8 µg/mL
MIC ([1]; P. aeruginosa F102): 16 µg/mL
MIC ([1]; P. aeruginosa F125): 4 µg/mL
MIC ([1]; P. aeruginosa F141): 16 µg/mL
MIC ([1]; P. aeruginosa F171): 32 µg/mL
MIC ([1]; P. aeruginosa F388): 32 µg/mL
MIC ([1]; P. aeruginosa PA01): 4 µg/mL
MBC ([2]; E. coli ATCC 8739): 8 µg/mL
MIC ([2]; E. coli ATCC 8739): 8 µg/mL
MBC ([2]; E. coli ATCC 25922): 64 µg/mL
MIC ([2]; E. coli ATCC 25922): 64 µg/mL
MBC ([2]; E. coli ATCC 51739): 8 µg/mL
MIC ([2]; E. coli ATCC 51739): 8 µg/mL
MBC ([2]; E. coli CCARM 1A746): 4 µg/mL
MIC ([2]; E. coli CCARM 1A746): 4 µg/mL
MBC ([2]; E. coli CCARM 1G490): 16 µg/mL
MIC ([2]; E. coli CCARM 1G490): 16 µg/mL
MBC ([2]; E. coli ECOR 1): 8 µg/mL
MIC ([2]; E. coli ECOR 1): 8 µg/mL
MBC ([2]; E. coli ECOR 2): 8 µg/mL
MIC ([2]; E. coli ECOR 2): 8 µg/mL
MBC ([2]; E. coli ECOR 9): 4 µg/mL
MIC ([2]; E. coli ECOR 9): 4 µg/mL
MBC ([2]; E. coli ECOR 15): 32 µg/mL
MIC ([2]; E. coli ECOR 15): 32 µg/mL
MBC ([2]; E. coli ECOR 35): 16 µg/mL
MIC ([2]; E. coli ECOR 35): 16 µg/mL
MBC ([2]; E. coli ECOR 36): >64 µg/mL
MIC ([2]; E. coli ECOR 36): >64 µg/mL
MBC ([2]; E. coli ECOR 43): 16 µg/mL
MIC ([2]; E. coli ECOR 43): 16 µg/mL
MBC ([2]; E. coli ECOR 45): 4 µg/mL
MIC ([2]; E. coli ECOR 45): 4 µg/mL
MBC ([2]; E. coli ECOR 52): >64 µg/mL
MIC ([2]; E. coli ECOR 52): 64 µg/mL
MBC ([2]; E. coli ECOR 69): >64 µg/mL
MIC ([2]; E. coli ECOR 69): >64 µg/mL
MBC ([2]; E. coli F485): 4 µg/mL
MIC ([2]; E. coli F485): 4 µg/mL
MBC ([2]; E. coli F524): 8 µg/mL
MIC ([2]; E. coli F524): 8 µg/mL
MBC ([2]; E. coli F576): 4 µg/mL
MIC ([2]; E. coli F576): 4 µg/mL
MBC ([2]; E. coli F716): >64 µg/mL
MIC ([2]; E. coli F716): >64 µg/mL
MBC ([2]; E. coli F852): 16 µg/mL
MIC ([2]; E. coli F852): 8 µg/mL
MBC ([2]; E. coli FORC81): 8 µg/mL
MIC ([2]; E. coli FORC81): 8 µg/mL
MBC ([2]; E. coli UPEC 90): 64 µg/mL
MIC ([2]; E. coli UPEC 90): 64 µg/mL
MBC ([2]; E. coli UPEC 3038): 16 µg/mL
MIC ([2]; E. coli UPEC 3038): 16 µg/mL
MBC ([2]; E. coli UPEC 3042): 16 µg/mL
MIC ([2]; E. coli UPEC 3042): 16 µg/mL
MBC ([2]; E. coli UPEC 3051): 16 µg/mL
MIC ([2]; E. coli UPEC 3051): 16 µg/mL
MBC ([2]; E. coli UPEC 3150): 8 µg/mL
MIC ([2]; E. coli UPEC 3150): 8 µg/mL
MBC ([2]; E. coli UPEC 3151): 64 µg/mL
MIC ([2]; E. coli UPEC 3151): 64 µg/mL
MBC ([2]; E. coli UPEC 3163): 16 µg/mL
MIC ([2]; E. coli UPEC 3163): 16 µg/mL
MBC ([2]; E. coli UPEC 3164): 32 µg/mL
MIC ([2]; E. coli UPEC 3164): 32 µg/mL
MBC ([2]; E. coli UPEC 3168): 8 µg/mL
MIC ([2]; E. coli UPEC 3168): 8 µg/mL
MBC ([2]; E. coli UPEC 3181): 8 µg/mL
MIC ([2]; E. coli UPEC 3181): 8 µg/mL
MBC compared with MIC ([2]; various E. coli strains): same as MIC
MIC in most of the strains ([2]; various E. coli strains of Table 2): 4 to 64 µg/mL
MIC ([3]; A. baumannii ATCC (first ATCC line, number not given)): 8 µg/mL
MIC ([3]; A. baumannii ATCC (second ATCC line, number not given)): 16 µg/mL
MIC ([3]; A. baumannii CCARM): 8 µg/mL
MIC ([3]; A. baumannii F4): 4 µg/mL
MIC ([3]; A. baumannii F65): 8 µg/mL
MIC ([3]; A. baumannii F66): 8 µg/mL
MIC ([3]; A. baumannii F67): 8 µg/mL
MIC ([4]; E. cloacae ATCC 13047): 16 µg/mL
MIC ([4]; E. cloacae CCARM 0252): 4 µg/mL
MIC ([4]; E. cloacae CCARM 16003): 8 µg/mL
MIC range [5]: 4 to 32 µg/mL
